This note sets out measurements from patent US20100210517A1 (RAPTOR PHARMACEUTICAL, published 2010).

In assay [1] the target is T1, LRP1 CR3-5 (human).
T1 construct: range 852-973; also called L1 CR3-5
Briefly: solid-phase binding assay, CR protein coated on plate, anti-RAP detection.

Assay [2] deals with T2, LRP2 CR89 (human, UniProt P98164 1025-1102).
T2 construct: domain: CR89; also called YVWR; L2 CR89; not shown: N-terminal hexahistidine and S-peptide tags of pET30(+)a
Described as above.

The next assay concerns the target T3, VLDLR CR6-8 (human, UniProt P98155 235-358).
T3 construct: range 235-358; also called V CR6-8; not shown: N-terminal hexahistidine and S-peptide tags of pET30(+)a
Described as above.

Assay [3] has as its target T4, LRP2 CR89 R1088D (human, UniProt P98164 1022-1105).
T4 construct: also called YVWD
The assay can be described thus: solid-phase assay on coated CR protein, anti-RAP detection, A450. How it is done:
(§1) Solid phase binding assays-Purified, refolded CR protein (1 μg) was bound to Nunc Maxisorp™ 96-well plates in TBS pH 8 supplemented with 5 mM CaCl₂ (TBSC) overnight at 4° C. Wells were washed with TBSC and then blocked with TBSC containing 2% bovine serum albumin (BSA). […] Control wells contained no added ligand. As an additional control, to determine whether the absence of calcium affected binding, 10 mM EGTA was included in the incubation medium for some samples. […] Excess primary antibody was removed and wells washed before incubation with the secondary antibody, HRP-conjugated goat anti rabbit IgG (Bio-Rad). After washing, TMB substrate solutions (Bio-Rad) were added to detect HRP. Color development was stopped with 1N HCl. Absorption at 450 nm was measured with a microplate spectrophotometer (Molecular Devices). Data were plotted and Kd values derived by non-linear regression with the assumption of single-site binding (GraphPad Prism).
(§2) To test this idea, mutant LRP2 CR89 were prepared in which the native, non-canonical residues at these positions were sequentially substituted with the non-native, canonical residues. As defined above, the A, C, A′, C′ string for LRP2 CR89 is YVWR. Mutants included LRP2 CR89 Y1042W (WVWR), LRP2 CR89 V1047D (YDWR), LRP2 CR89 R1088D (YVWD), LRP2 CR89 V1047D R1088D (YDWD), LRP2 CR89 Y1042W V1047D R1088D (WDWD), LRP2 CR89 Y1042W V1047D (WDWR), LRP2 CR89 Y1042W R1088D (WVWD).

Assay [4] addresses T1, LRP1 CR3-5. Briefly: solid-phase assay on coated CR protein, single-site non-linear fit. How it is done: Data were plotted and fitted by non-linear regression with the assumption of a single binding site (GraphPad Prism). Kd values with standard deviations were derived from the regression analysis.
as §1

In the next assay the target is T5, LRP2 CR2728 (human, UniProt P98164 3552-3631).
T5 construct: domain: CR2728; Its cloning is not described in the methods; not shown: N-terminal hexahistidine and S-peptide tags of pET30(+)a
T5 sequence (looked up): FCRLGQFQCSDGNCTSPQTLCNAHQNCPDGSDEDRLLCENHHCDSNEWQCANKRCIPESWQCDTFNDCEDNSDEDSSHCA
Briefly: solid-phase assay on coated CR protein, each ligand at 80 nM, blank-corrected absorbance. The method, then:
(§3) Samples were tested twice, in duplicate, and values combined. Means and standard deviations were then calculated. Blank values obtained from wells incubated in the absence of ligand were used to correct absorbance data.
as §1

Another assay has as its target T6, LRP2 CR3031 (human, UniProt P98164 3677-3755).
T6 construct: domain: CR3031; Its cloning is not described in the methods; not shown: N-terminal hexahistidine and S-peptide tags of pET30(+)a
The assay is described as above. How it is done: as §3, §1

For another assay, the target named is T7, MAT CR12 (human, UniProt Q9Y5Y6 452-524).
T7 construct: also called ST14 CR12; matriptase CR12
T7 sequence: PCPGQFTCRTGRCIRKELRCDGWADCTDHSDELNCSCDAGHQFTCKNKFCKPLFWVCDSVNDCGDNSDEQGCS
The description is as above. The method, then:
as §3, §1

For assay [5], the target named is T1, LRP1 CR3-5. Briefly: solid-phase assay; OD at the highest ligand concentration as percent of the highest OD of all ligands. The method, then:
as §1

The target of assay [6] is T2, LRP2 CR89. The assay is described as above. The method, then: as §1
In assay [7] the target is T2, LRP2 CR89. Described as above. The method, then: as §1, §2
This is another data set of the same source.

The next assay addresses T8, LRP2 CR89 V1047D (human, UniProt P98164 1022-1105).
T8 construct: also called YDWR
T8 sequence: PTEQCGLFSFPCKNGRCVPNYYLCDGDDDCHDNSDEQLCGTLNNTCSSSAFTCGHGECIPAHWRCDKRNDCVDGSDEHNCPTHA
The description is as above. How it is done:
as §1, §2

Assay [8] deals with T4, LRP2 CR89 R1088D. The assay is described as above. How it is done: as §1, §2
In a further assay the target is T9, LRP2 CR89 V1047D R1088D (human, UniProt P98164 1022-1105).
T9 construct: also called YDWD
T9 sequence: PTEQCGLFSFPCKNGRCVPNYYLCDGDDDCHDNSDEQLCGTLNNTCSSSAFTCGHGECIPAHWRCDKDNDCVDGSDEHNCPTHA
The assay is described as above. The method, then: as §1, §2

The target in assay [9] is T10, LRP2 CR89 Y1042W V1047D R1088D (human, UniProt P98164 1022-1105).
T10 construct: also called WDWD
T10 chain: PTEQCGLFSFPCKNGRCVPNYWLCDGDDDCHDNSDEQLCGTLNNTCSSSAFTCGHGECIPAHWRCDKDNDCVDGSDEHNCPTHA
The assay is described as above. The method, then:
as §1, §2

The next assay has as its target T11, LRP2 CR89 Y1042W V1047D (human, UniProt P98164 1022-1105).
T11 construct: also called WDWR
T11 chain: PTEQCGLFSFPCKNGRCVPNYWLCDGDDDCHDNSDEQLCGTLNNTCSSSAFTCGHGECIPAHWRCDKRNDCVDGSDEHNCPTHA
Described as above. The method, then:
as §1, §2

The next assay addresses T12, LRP2 CR89 Y1042W R1088D (human, UniProt P98164 1022-1105).
T12 construct: also called WVWD
T12 chain: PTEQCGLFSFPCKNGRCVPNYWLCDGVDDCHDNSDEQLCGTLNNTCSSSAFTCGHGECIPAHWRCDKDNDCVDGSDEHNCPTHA
The assay is described as above. How it is done:
as §1, §2

In assay [10] the target is T1, LRP1 CR3-5. The assay can be described thus: apparent Kd of the variant for the CR pair used in selection; no unit printed in Table 4, nM per Table 2 and paragraph 292.

T2 sequence (P98164 1025-1102): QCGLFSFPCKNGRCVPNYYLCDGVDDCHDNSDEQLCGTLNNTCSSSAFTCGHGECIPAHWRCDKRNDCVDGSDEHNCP
T1 sequence (Q07954 852-973): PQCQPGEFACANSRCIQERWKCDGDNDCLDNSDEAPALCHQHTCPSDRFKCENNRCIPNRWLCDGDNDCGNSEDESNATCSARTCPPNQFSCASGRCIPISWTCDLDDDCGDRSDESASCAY
T6 sequence (P98164 3677-3755): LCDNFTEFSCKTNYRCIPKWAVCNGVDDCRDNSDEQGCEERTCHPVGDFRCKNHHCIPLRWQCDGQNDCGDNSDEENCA

B1: RAP d3 (wild-type domain 3 of human RAP, amino acids 201-319 of mature RAP) (ligand)
chain: LDRLRRVSHQGYSTEAEFEEPRVIDLWDLEQSANLTDKELEAFREELKHFEAKIEKHNHYQKQLEIAHEKLRHAESVGDGERVSRSREKHALLEGRTKELGYTVKKHLQDLSGRISRAR
notes: Expressed in E. coli from pET30(+)a, Ni-NTA purified; also called wild-type RAP d3; recombinant RAP d3; not shown: N-terminal hexahistidine and S-peptide tags of pET30(+)a
On to B1, for which the Kd with LRP1 CR3-5 [1] is 11 nM; with LRP2 CR89 [2], greater than 300 nM; in the assay with VLDLR CR6-8 it was greater than 300 nM; with LRP1 CR3-5 [4], 16 nM; in the assay with LRP1 CR3-5 [10], 16 nM. The binding result in the assay with LRP2 CR89 R1088D [3] is given as “no binding (tested: 100 nM)”; in the assay with LRP2 CR2728, “no binding (tested: 80 nM)”; with LRP2 CR3031, “no binding (tested: 80 nM)”; with MAT CR12, “no binding (tested: 80 nM)”. Moreover, the “% max” value came out at 76% with LRP1 CR3-5 [5] and 5% with LRP2 CR89 [6]. For the same molecule, the “% max bind” value came to 7% with LRP2 CR89 [7]; 6% with LRP2 CR89 V1047D; 7% with LRP2 CR89 R1088D [8]; 6% with LRP2 CR89 V1047D R1088D; 15% in assay [9]; 11% with LRP2 CR89 Y1042W V1047D. The “% max bind” value with LRP2 CR89 Y1042W R1088D was 16%.
